Experimental data reported in the supplement of paper PMC7125110.
± gives the standard error. For some assays here: Fewer inactive variants are shown than the library holds.

B1: glmS ribozyme (parent)
chain: AUAAAAGCGCCAGAACUACAGAAAUGUAGUUGACGAGGAGGAGGUUUAUCGAAUUUUCGGCGGAUGCCUCCAAA

Assays:
Conditions in all cases: with glucosamine-6-phosphate
[1] = variants of: B1; experiment: kcat; higher = faster cleavage; RNA array
Procedure, shortened: (§1)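 In situ transcription by E. coli RNA polymerase produced barcoded ribozyme variants on sequenced MiSeq chips, and a hybridised Cy3 probe tracked them at 37 °C. Glucosamine-6-phosphate was flowed in at 40 μM to 10 mM in HEPES/KCl/Mg(OAc)2 buffer. kcat and KM were taken from weighted Michaelis–Menten fits of kobs values from exponential decay fits.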

[2] = variants of: B1; experiment: self-cleavage kobs at 10000 uM GlcN6P; higher = faster cleavage; RNA array
Procedure, shortened: as §1

[3] = variants of: B1; experiment: self-cleavage kobs at 160 uM GlcN6P; higher = faster cleavage; RNA array
Procedure, shortened: as §1

[4] = variants of: B1; experiment: self-cleavage kobs at 40 uM GlcN6P; higher = faster cleavage; RNA array
Procedure, shortened: as §1

[5] = variants of: B1; experiment: self-cleavage kobs at 640 uM GlcN6P; higher = faster cleavage; RNA array
Procedure, shortened: as §1

[6] = variants of: B1; experiment: self-cleavage kobs at 2500 uM GlcN6P; higher = faster cleavage; RNA array
Procedure, shortened: as §1

[7] = variants of: B1; experiment: KM; higher = weaker cofactor use; RNA array
Procedure, shortened: as §1

Row | Variant | kcat [1] | self-cleavage kobs at 10000 uM GlcN6P [2] | self-cleavage kobs at 160 uM GlcN6P [3] | self-cleavage kobs at 40 uM GlcN6P [4] | self-cleavage kobs at 640 uM GlcN6P [5] | self-cleavage kobs at 2500 uM GlcN6P [6] | KM [7]
1 | A53C U57A U69A | 1.88e-05 ± 5.8e-06 s⁻¹ | – | – | – | – | – | –
2 | C50U A53C U54G | 1.06e-05 ± 9.8e-07 s⁻¹ | < 1e-05 s⁻¹ | – | – | – | – | –
3 | A48G C67A | 7.17e-05 ± 2.1e-06 s⁻¹ | 3.47e-05 ± 1.2e-05 s⁻¹ | < 1e-05 s⁻¹ | – | – | – | –
4 | G43A C68A | 2.1e-05 ± 8.5e-06 s⁻¹ | – | – | – | – | – | –
5 | C50G U57A | 7.3e-05 ± 1.7e-05 s⁻¹ | – | 8.31e-05 ± 1.4e-05 s⁻¹ | 3.58e-05 ± 1.6e-05 s⁻¹ | 5.84e-05 ± 1.6e-05 s⁻¹ | 6.05e-05 ± 2.7e-05 s⁻¹ | –
6 | A53U C68A | 5.43e-05 ± 1.6e-05 s⁻¹ | – | 3.62e-05 ± 1e-05 s⁻¹ | – | 6.67e-05 ± 8.3e-06 s⁻¹ | 6.54e-05 ± 9.8e-06 s⁻¹ | –
7 | U45G C67A | 0.00845 ± 0.0014 s⁻¹ | 0.00674 ± 0.0011 s⁻¹ | 0.000663 ± 0.00016 s⁻¹ | 0.000114 ± 1.8e-05 s⁻¹ | 0.00177 ± 0.00033 s⁻¹ | 0.00369 ± 0.001 s⁻¹ | 2670 ± 590 µM
8 | G44C U56A | 7.55e-05 ± 7.5e-06 s⁻¹ | 5.85e-05 ± 6.8e-06 s⁻¹ | – | – | – | 3.9e-05 ± 1.4e-05 s⁻¹ | 2860 ± 1100 µM
9 | A52C U57C | 3.44e-05 ± 6.5e-06 s⁻¹ | 2.95e-05 ± 1e-05 s⁻¹ | – | – | – | 4.64e-05 ± 1.6e-05 s⁻¹ | –
10 | A52G C68U | 0.000874 ± 0.00036 s⁻¹ | 0.000858 ± 9.2e-05 s⁻¹ | 9.18e-05 ± 1.1e-05 s⁻¹ | 2.35e-05 ± 7.7e-06 s⁻¹ | 0.00015 ± 1.7e-05 s⁻¹ | 0.000377 ± 4e-05 s⁻¹ | –
11 | A52G C68G | 5.61e-05 ± 9.7e-06 s⁻¹ | 4.28e-05 ± 8.7e-06 s⁻¹ | – | – | 6.55e-05 ± 1.4e-05 s⁻¹ | 7.16e-05 ± 1.2e-05 s⁻¹ | –
12 | U47G C50U | 3.97e-05 ± 1.6e-06 s⁻¹ | 3.69e-05 ± 1.2e-05 s⁻¹ | – | – | – | 3.64e-05 ± 1.5e-05 s⁻¹ | 433 ± 100 µM
13 | C50G G59U C68G | 8.8e-05 ± 8.6e-06 s⁻¹ | 7.83e-05 ± 1.5e-05 s⁻¹ | – | 6.82e-05 ± 2.8e-05 s⁻¹ | 0.000101 ± 3e-05 s⁻¹ | 0.000102 ± 2.2e-05 s⁻¹ | –
14 | A53U U56C C71U | 0.00121 ± 0.00019 s⁻¹ | 0.000903 ± 0.0002 s⁻¹ | 4.8e-05 ± 1.3e-05 s⁻¹ | – | – | 0.000406 ± 9.1e-05 s⁻¹ | 4240 ± 1000 µM
15 | G51U A52C | < 1e-05 s⁻¹ | < 1e-05 s⁻¹ | – | < 1e-05 s⁻¹ | – | < 1e-05 s⁻¹ | –
16 | A48G G59A | 5.08e-05 ± 1.8e-05 s⁻¹ | – | – | – | – | 6.29e-05 ± 1.8e-05 s⁻¹ | –
17 | U46G U65A | 0.00378 ± 0.00067 s⁻¹ | 0.00296 ± 0.00047 s⁻¹ | 0.000198 ± 4.8e-05 s⁻¹ | 8.18e-05 ± 1.7e-05 s⁻¹ | 0.000703 ± 0.00015 s⁻¹ | 0.00212 ± 0.00033 s⁻¹ | 2420 ± 650 µM
18 | G43C C68U | 0.000722 ± 5.4e-05 s⁻¹ | 0.000615 ± 6.7e-05 s⁻¹ | 7.12e-05 ± 1.6e-05 s⁻¹ | – | 0.000235 ± 2.8e-05 s⁻¹ | 0.000572 ± 0.00012 s⁻¹ | 1370 ± 190 µM
19 | U46C U47A | 0.00433 ± 0.002 s⁻¹ | 0.00365 ± 0.001 s⁻¹ | – | 9.34e-05 ± 1.5e-05 s⁻¹ | 0.000719 ± 0.00017 s⁻¹ | 0.00311 ± 0.0008 s⁻¹ | –

Row | Variant | kcat [1] | self-cleavage kobs at 10000 uM GlcN6P [2] | self-cleavage kobs at 160 uM GlcN6P [3] | self-cleavage kobs at 40 uM GlcN6P [4] | self-cleavage kobs at 640 uM GlcN6P [5] | self-cleavage kobs at 2500 uM GlcN6P [6] | KM [7]
20 | G51U U56C | < 1e-05 s⁻¹ | – | < 1e-05 s⁻¹ | < 1e-05 s⁻¹ | < 1e-05 s⁻¹ | – | –
21 | U45C U54A | 0.00783 ± 0.0023 s⁻¹ | 0.00436 ± 0.001 s⁻¹ | 0.000161 ± 3.3e-05 s⁻¹ | – | 0.00072 ± 0.00011 s⁻¹ | 0.00255 ± 0.00053 s⁻¹ | 6680 ± 2400 µM
22 | A48U C50G G59U G66U | 1.53e-05 ± 4.3e-06 s⁻¹ | – | < 1e-05 s⁻¹ | – | – | – | –
23 | G44A U54A | 0.000692 ± 0.00012 s⁻¹ | 0.000538 ± 0.00011 s⁻¹ | – | – | 0.000132 ± 3.9e-05 s⁻¹ | 0.00051 ± 0.0002 s⁻¹ | 2530 ± 870 µM
24 | G44A U54C | 0.00159 ± 0.00015 s⁻¹ | 0.000869 ± 0.00017 s⁻¹ | – | – | 0.000114 ± 1.7e-05 s⁻¹ | 0.000372 ± 6.7e-05 s⁻¹ | 8260 ± 990 µM
25 | C50A C61U C70U | 3.88e-05 ± 1.2e-05 s⁻¹ | – | – | – | – | – | –
26 | U47G C68A | 6.42e-05 ± 2.2e-05 s⁻¹ | 3.58e-05 ± 1.2e-05 s⁻¹ | 4.97e-05 ± 2e-05 s⁻¹ | – | 0.000121 ± 2.4e-05 s⁻¹ | 9.07e-05 ± 1.6e-05 s⁻¹ | –
27 | U45A U54A | 0.115 ± 0.045 s⁻¹ | 0.0819 ± 0.035 s⁻¹ | 0.00611 ± 0.0017 s⁻¹ | 0.00179 ± 0.00033 s⁻¹ | 0.0204 ± 0.0069 s⁻¹ | 0.122 ± 0.049 s⁻¹ | 2630 ± 1200 µM
28 | C50A A53G | 2.89e-05 ± 3e-06 s⁻¹ | 2.62e-05 ± 9.1e-06 s⁻¹ | – | – | – | 3.53e-05 ± 1.5e-05 s⁻¹ | –
29 | A53C C58G | 1.56e-05 ± 5.2e-06 s⁻¹ | – | – | – | – | – | –
30 | A53C C58A | 5.04e-05 ± 1.4e-05 s⁻¹ | 3.91e-05 ± 8.6e-06 s⁻¹ | – | – | – | 1.94e-05 ± 7.6e-06 s⁻¹ | –
31 | A53C C58U | 3.83e-05 ± 9.3e-06 s⁻¹ | – | < 1e-05 s⁻¹ | < 1e-05 s⁻¹ | – | – | –
32 | G51A U69G | 5.93e-05 ± 1.1e-05 s⁻¹ | – | 4.53e-05 ± 1.5e-05 s⁻¹ | – | 6.08e-05 ± 1.6e-05 s⁻¹ | 5.96e-05 ± 1.5e-05 s⁻¹ | –
33 | G44C U46A | 7.73e-05 ± 1.3e-05 s⁻¹ | 7.15e-05 ± 9.9e-06 s⁻¹ | – | < 1e-05 s⁻¹ | – | 0.000108 ± 2.5e-05 s⁻¹ | –
34 | A53U A64C | 8.67e-05 ± 2.2e-05 s⁻¹ | 7.17e-05 ± 1.1e-05 s⁻¹ | – | – | – | 9.3e-05 ± 1.6e-05 s⁻¹ | –
35 | C50U U56G | 1.91e-05 ± 1.3e-06 s⁻¹ | – | < 1e-05 s⁻¹ | – | – | – | 829 ± 360 µM
36 | A52U U57G | 5.28e-05 ± 9.7e-06 s⁻¹ | 4.88e-05 ± 7.6e-06 s⁻¹ | – | < 1e-05 s⁻¹ | – | – | –
37 | A52U U57A | 0.00351 ± 0.00067 s⁻¹ | 0.00213 ± 0.00033 s⁻¹ | 9.27e-05 ± 1.9e-05 s⁻¹ | – | 0.000344 ± 6.8e-05 s⁻¹ | 0.00123 ± 0.00025 s⁻¹ | 5900 ± 1500 µM
